Publication PMC10345426, “Structural polymorphism of the PH domain in TFIIH” (Bioscience Reports, 2023)
Read-outs that look alike come from different tables or passages of the source. Blank lines part the entries; values can stand above or below the molecule they belong to.

Assays:
[1] = target: TFIIH p62 PH (Homo sapiens) (UniProt P32780); conditions: cited from earlier work
[2] = target: TFIIH p62 PH (Homo sapiens) (UniProt P32780); conditions: cited from earlier work; remark: listed apart in the source
[3] = target: TFIIH Tfb1 PH (Saccharomyces cerevisiae) (UniProt P32776); conditions: cited from earlier work
[4] = target: T1, PH domain of fission yeast (Schizosaccharomyces pombe) Tfb1, residues 1-108 (Schizosaccharomyces pombe, UniProt O13745 1-108); experiment: ITC; VP-ITC; syringe 300 uM peptide, cell 2 ml of 30 uM spPH domain; 25 x 20 ul injections; 20 mM potassium phosphate pH 6.8, 20°C; conditions: both partners purified
T1 construct: General transcription and DNA repair factor IIH subunit tfb1 (spTfb1), Schizosaccharomyces pombe, UniProt name TFB1_SCHPO, N-terminal PH domain, residues 1-108; 15N-labelled in the NMR titration; Residues of the vector may be left at the N-terminus after thrombin cleavage (surmised); also called spPH; spPH domain; source: E. coli BL21-Gold (DE3), pET15b, purified (His-tag resin, thrombin …)
T1 sequence (looked up): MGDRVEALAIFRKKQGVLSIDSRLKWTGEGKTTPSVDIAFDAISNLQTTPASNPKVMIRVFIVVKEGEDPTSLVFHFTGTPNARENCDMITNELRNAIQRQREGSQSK

Sequence of TFIIH p62 PH (Homo sapiens) (P32780 1-108): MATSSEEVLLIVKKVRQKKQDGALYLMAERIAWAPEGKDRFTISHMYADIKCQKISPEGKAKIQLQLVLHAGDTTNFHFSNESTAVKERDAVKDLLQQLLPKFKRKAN
Sequence of TFIIH Tfb1 PH (Saccharomyces cerevisiae) (P32776 1-115): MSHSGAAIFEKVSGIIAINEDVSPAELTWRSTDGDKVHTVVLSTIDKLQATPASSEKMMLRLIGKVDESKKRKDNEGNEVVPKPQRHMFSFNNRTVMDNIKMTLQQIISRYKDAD

Molecule: TFIIEα acidic domain (from UniProt P29083)
- Kd [1]: 95 nM

Molecule: hXPC acidic string (from UniProt Q01831)
- Kd [2]: 58 nM

Molecule: scRad4 acidic string (from UniProt P14736)
- Kd [3]: 50 nM

- Kd [4]: 52.1 ± 13.5 nM
B1: spRhp41(4-22) peptide, N-terminal acidic string of fission yeast Rhp41 (peptide, UniProt Q10445 4-22, looked up)
peptide: DEDNTYSDDEEWLDLDLGL
notes: Rhp41 (homologue of human XPC and S. cerevisiae Rad4), Schizosaccharomyces pombe, residues 4-22 (holds Trp15, Leu16, Leu18, Leu20, Leu22); source: synthetic peptide, bought: GenScript

- Kd [4]: 148 ± 41.3 nM
B2: spTfa1(332-350) peptide, acidic segment of fission yeast Tfa1 (peptide, UniProt Q9P3W1 332-350, looked up)
peptide: DSENVDDEEDDDFLDVTTA
notes: source: synthetic peptide, bought: GenScript

- Kd [4]: 12.4 ± 6.5 nM
B3: spTfa1(416-434) peptide, C-terminal acidic segment of fission yeast Tfa1 (peptide, UniProt Q9P3W1 416-434, looked up)
peptide: NGFNEDDEDDEDEADFEDV
notes: Tfa1 (homologue of human TFIIEalpha), Schizosaccharomyces pombe, residues 416-434; source: synthetic peptide, bought: GenScript
